Test results reported in patent US20220380801A1, “TRIPARTITE SYSTEMS FOR PROTEIN DIMERIZATION AND METHODS OF USE” (priority 2019, published 2022).
Like-named read-outs stand apart in the source and are kept apart here.

Legend:
Conditions in all cases: remark: other sources report otherwise
[1] = molecular target: T1, HCV NS3/4A PR (S139A):simeprevir complex (Hepatitis C virus subtype 1a); assay: HTRF, with simeprevir
[2] = molecular target: T1, HCV NS3/4A PR (S139A):simeprevir …
[3] = molecular target: T1, HCV NS3/4A PR (S139A):simeprevir …; assay: phage ELISA
[4] = molecular target: T1, HCV NS3/4A PR (S139A):simeprevir …; remark: listed apart in the source
[5] = molecular target: T1, HCV NS3/4A PR (S139A):simeprevir …; remark: listed apart in the source
[6] = molecular target: T1, HCV NS3/4A PR (S139A):simeprevir …; assay: SPR Biacore 8K, PRSIM immobilised, protease flowed with 10 nM simeprevir
[7] = molecular target: T1, HCV NS3/4A PR (S139A):simeprevir …; remark: listed apart in the source
[8] = molecular target: T1, HCV NS3/4A PR (S139A):simeprevir …; remark: listed apart in the source
[9] = molecular target: HCV NS3/4A PR K136H (S139A background), in the presence of simeprevir (Hepatitis C virus subtype 1a)

B1: PRSIM_23 (designed binder)
chain: RLDAPSQIEVKDVTDTTALITWVDPRYDDIWWFELTYGIKDVPGDRTTIKLYLNDPYYSIGNLKPDTEYEVSLISYTGDSYSRSGSNPAKITFKTGL
HTRF max. signal (% delta F) [1]: 1570 % delta F | Kd [2]: 5.4 nM | Binding fold change [(HCV protease + Simeprevir binding)/HCV protease alone] [3]: 23.8 fold | Simeprevir EC50 for induction of heterodimerisation [4]: 4.53 nM | Simeprevir EC50 for induction of heterodimerisation [5]: 4.03 nM | Kd [6]: 6.3 nM | koff [6]: 0.0318 s⁻¹ | kon [6]: 5.03e+06 M⁻¹ s⁻¹ | EC50 (read off the curve) [7]: 2 nM | EC50 (read off the curve) [8]: 3 nM | EC50 (read off the curve) [9]: 4 nM
